Values quoted from earlier work in US20200069786A1, “COMPOSITION AND PROCESS FOR PREPARING VACCINE” (TREOS BIO ZRT., priority 2018, published 2020).
Like-named read-outs stand apart in the source and are kept apart here.

System: TSA
[1] = TSA expression rate in LUNG cancer
[2] = TSA expression rate in LEUKEMIAS
[3] = TSA expression rate in HEAD and NECK
[4] = TSA expression rate in MELANOMA

B1: HORMAD2 (protein, UniProt Q8N7B1 1-307, looked up)
HORMA domain-containing …: MATAQLSHCITIHKASKETVFPSQITNEHESLKMVKKLFATSISCITYLRGLFPESSYGERHLDDLSLKILREDKKCPGSLHIIRWIQGCFDALEKRYLRMAVLTLYTDPMGSEKVTEMYQFKFKYTKEGATMDFDSHSSSTSFESGTNNEDIKKASVLLIRKLYILMQDLEPLPNNVVLTMKLHYYNAVTPHDYQPLGFKEGVNSHFLLFDKEPINVQVGFVSTGFHSMKVKVMTEATKVIDLENNLFRENSTTEIAHQGLDCDEEEECNDHIQRMNFVCSQQSSECSRKKRKVSEPVKVFIPNRK
For B1, which “Expression Rate (ER) %” value [1] is on record?
The value was 5%.

B2: PTTG-1 (protein, UniProt O95997 2-202, looked up)
Securin: ATLIYVDKENGEPGTRVVAKDGLKLGSGPSIKALDGRSQVSTPRFGKTFDAPPALPKATRKALGTVNRATEKSVKTKGPLKQKQPSFSAKKMTEKTVKAKSSVPASDDAYPEIEKFFPFNPLDFESFDLPEEHQIAHLPLSGVPLMILDEERELEKLFQLGPPSPVKMPSPPWESNLLQSPSSILSTLDVELPPVCCDIDI
With B2 as the molecule, how does the “TSA Expression Rate (ER)” value (LUNG) read?
Its value is 20%.

B3: FAM133A (protein, UniProt Q8N9E0 1-248, looked up)
Protein FAM133A: MGKRDNRVAYMNPIAMARWRGPTQSVGPTIQDYLNRPRPTWEEVKKQLENKKTGSKALAEFEEKMNENWKKELEKSREKLLSGNESSSKKRERKKKRKKKSCRSSSSSSSSDSSSSSSDSEDEEKKQGKRRKKKKNRSYKSSQSSTHESESESKESVKKKKKSKDETEKEKDVRSLSKKRKKSYPDDKPLSSESSSESDYEEDVQAKKKRRCEEREQAKEKVKKKKKKQHKKHSKKKKKKSGSSHKSR
With B3 as the molecule, how does the “Expression Rate (ER) %” value [2] read?
Its value is 83%.

B4: CTAGE1 (protein, UniProt Q96RT6 1-745, looked up)
cTAGE family member 2: MRPDSHPYGFPWELVIRAAVAGFFAVLFLWRSFRSVTSRLYVRREKKFAVALSGLIEEKCKLLEKFSLVQKEYEGYEVESSLKNASFEKEATEAQSLEATCEKLNRFNSELVHEILCLEKELKEEKSKHSEQNELMADISKRIQSLEDESKSLKSQVAEAKMTFKRFQANEERLEIEIQDAWKENSELQESQKQLLQEAEVWKEQVSELIKQKRTFEDSKVHAEQVLNDKENHIKTLTERLLKMKDGVAMLEEDVTDDDNLELEMNSESEDGAYLDNPPKGALKKLIHAAKLNASLKTLEGERNQIYIQLSEVDKTKEELTEHIKNLQTEQASLQSENTHFESENQKLQQKLKVMTELYQENEMKLYRKLIVEEKCRLEKEEKLSKVDEMISHATEELETYRKRAKDLKEFEKTIHFYQKKIILHEKKAHDNWSAAWTAERNLNDLRKENAHNRQKLTEIEFKIKLLEKDPYGLDVPNTAFGRQHSPYGPSPLGWPSSETRASLYPPTLLEGPLRLSPLLPRGGGRGSRGPGNPPDHQITKERGESSCDRLTDPHRAPSDAGPLAPPWEQDYRMMFPPPGQSYPDSALPPQRQDRFYSNCARLSGPAELRSFNMPSLDKMDGSMPSEMESSRNDTKDNLGNLKVPDSSLPAENEATGPGFVPPPLAPIRGLLFPVDTRGPFIRRGPPFPPPPPGTVFGASPDYFSPRDVPGPPRAPFAMRNVYLPRGFLPYRPPRPAFFPPAPTF
Which “Expression Rate (ER) %” value (TSA expression rate in BLADDER cancer) does the source give for B4 here?
Its value is 53%.

What about the “Expression Rate (ER) %” value (TSA expression rate in CRC) of the same molecule?
Its value is 19%.

And the “Expression Rate (ER) %” value [2]?
Its value is 72%.

B5: LIPI (protein, UniProt Q6XZB0 16-460, looked up)
Lipase member I: DNKRPCLEFSQLSVKDSFRDLFIPRIETILMMYTRNNLNCAEPLFEQNNSLNVNFNTQKKTVWLIHGYRPVGSIPLWLQNFVRILLNEEDMNVIVVDWSRGATTFIYNRAVKNTRKVAVSLSVHIKNLLKHGASLDNFHFIGVSLGAHISGFVGKIFHGQLGRITGLDPAGPRFSRKPPYSRLDYTDAKFVDVIHSDSNGLGIQEPLGHIDFYPNGGNKQPGCPKSIFSGIQFIKCNHQRAVHLFMASLETNCNFISFPCRSYKDYKTSLCVDCDCFKEKSCPRLGYQAKLFKGVLKERMEGRPLRTTVFLDTSGTYPFCTYYFVLSIIVPDKTMMDGSFSFKLLNQLGMIEEPRLYEKNKPFYKLQEVKILAQFYNDFVNISSIGLTYFQSSNLQCSTCTYKIQSLMLKSLTYPERPPLCRYNIVLKDREEVFLNPNTCTPKNT
With B5 as the molecule, how does the “Expression Rate (ER) %” value (TSA expression rate in CRC) read?
The value was 0%.

What about the “Expression Rate (ER) %” value [3] of the same molecule?
The value was 0%.

What about the “Expression Rate (ER) %” value (TSA expression rate in Kidney) of the same molecule?
The value was 25%.

And the “Expression Rate (ER) %” value [2]?
Its value is 6%.

And the “Expression Rate (ER) %” value [1]?
The value was 0%.

And the “Expression Rate (ER) %” value [4]?
The value was 0%.

B6: ADAM29 (protein, UniProt Q9UKF5 194-820, looked up)
Disintegrin and …: WIHFRIVEIVVVIDNYLYIRYERNDSKLLEDLYVIVNIVDSILDVIGVKVLLFGLEIWTNKNLIVVDDVRKSVHLYCKWKSENITPRMQHDTSHLFTTLGLRGLSGIGAFRGMCTPHRSCAIVTFMNKTLGTFSIAVAHHLGHNLGMNHDEDTCRCSQPRCIMHEGNPPITKFSNCSYGDFWEYTVERTKCLLETVHTKDIFNVKRCGNGVVEEGEECDCGPLKHCAKDPCCLSNCTLTDGSTCAFGLCCKDCKFLPSGKVCRKEVNECDLPEWCNGTSHKCPDDFYVEDGIPCKERGYCYEKSCHDRNEQCRRIFGAGANTASETCYKELNTLGDRVGHCGIKNATYIKCNISDVQCGRIQCENVTEIPNMSDHTTVHWARFNDIMCWSTDYHLGMKGPDIGEVKDGTECGIDHICIHRHCVHITILNSNCSPAFCNKRGICNNKHHCHCNYLWDPPNCLIKGYGGSVDSGPPPKRKKKKKFCYLCILLLIVLFILLCCLYRLCKKSKPIKKQQDVQTPSAKEEEKIQRRPHELPPQSQPWVMPSQSQPPVTPSQSHPQVMPSQSQPPVTPSQSQPRVMPSQSQPPVMPSQSHPQLTPSQSQPPVTPSQRQPQLMPSQSQPPVTPS
For B6, which “Expression Rate (ER) %” value [1] is on record?
The value was 7%.

B7: MAGE-B3 (protein, UniProt O15480 1-346, looked up)
Melanoma-associated antigen B3: MPRGQKSTLHAREKRQQTRGQTQDHQGAQITATNKKKVSFSSPLILGATIQKKSAGRSRSALKKPQRALSTTTSVDVSYKKSYKGANSKIEKKQSFSQGLSSTVQSRTDPLIMKTNMLVQFLMEMYKMKKPIMKADMLKIVQKSHKNCFPEILKKASFNMEVVFGVDLKKVDSTKDSYVLVSKMDLPNNGTVTRGRGFPKTGLLLNLLGVIFMKGNCATEEKIWEFLNKMRIYDGKKHFIFGEPRKLITQDLVKLKYLEYRQVPNSNPARYEFLWGPRAHAETSKMKVLEFWAKVNKTVPSAFQFWYEEALRDEEERVQAAAMLNDGSSAMGRKCSKAKASSSSHA
For B7, which “Expression Rate (ER) %” value [1] is on record?
Its value is 0%.

B8: CALR3 (protein, UniProt Q96L12 20-384, looked up)
Calreticulin-3: TVYFQEEFLDGEHWRNRWLQSTNDSRFGHFRLSSGKFYGHKEKDKGLQTTQNGRFYAISARFKPFSNKGKTLVIQYTVKHEQKMDCGGGYIKVFPADIDQKNLNGKSQYYIMFGPDICGFDIKKVHVILHFKNKYHENKKLIRCKVDGFTHLYTLILRPDLSYDVKIDGQSIESGSIEYDWNLTSLKKETSPAESKDWEQTKDNKAQDWEKHFLDASTSKQSDWNGDLDGDWPAPMLQKPPYQDGLKPEGIHKDVWLHRKMKNTDYLTQYDLSEFENIGAIGLELWQVRSGTIFDNFLITDDEEYADNFGKATWGETKGPEREMDAIQAKEEMKKAREEEEEELLSGKINRHEHYFNQFHRRNEL
For B8, which “TSA Expression Rate (ER)” value (BREAST) is on record?
Its value is 0%.

And the “Expression Rate (ER) %” value (TSA expression rate in CRC)?
Its value is 16%.

What about the “Expression Rate (ER) %” value (TSA expression rate in GASTRIC cancer) of the same molecule?
Its value is 40%.

What about the “Expression Rate (ER) %” value (TSA expression rate in Kidney) of the same molecule?
The value was 80%.

And the “Expression Rate (ER) %” value [1]?
The value was 9%.

And the “Expression Rate (ER) %” value [4]?
Its value is 44%.

B9: CABYR (protein, UniProt O75952 1-493, looked up)
Calcium-binding tyrosine …: MISSKPRLVVPYGLKTLLEGISRAVLKTNPSNINQFAAAYFQELTMYRGNTTMDIKDLVKQFHQIKVEKWSEGTTPQKKLECLKEPGKTSVESKVPTQMEKSTDTDEDNVTRTEYSDKTTQFPSVYAVPGTEQTEAVGGLSSKPATPKTTTPPSSPPPTAVSPEFAYVPADPAQLAAQMLGKVSSIHSDQSDVLMVDVATSMPVVIKEVPSSEAAEDVMVAAPLVCSGKVLEVQVVNQTSVHVDLGSQPKENEAEPSTASSVPLQDEQEPPAYDQAPEVTLQADIEVMSTVHISSVYNDVPVTEGVVYIEQLPEQIVIPFTDQVACLKENEQSKENEQSPRVSPKSVVEKTTSGMSKKSVESVKLAQLEENAKYSSVYMEAEATALLSDTSLKGQPEVPAQLLDAEGAIKIGSEKSLHLEVEITSIVSDNTGQEESGENSVPQEMEGKPVLSGEAAEAVHSGTSVKSSSGPFPPAPEGLTAPEIEPEGESTAE
Which “Expression Rate (ER) %” value (TSA expression rate in Esophageal) does the source give for B9 here?
The value was 17%.

And the “Expression Rate (ER) %” value [1]?
The value was 16%.

B10: GAGE-7 (protein, UniProt O76087 1-117, looked up)
G antigen 7: MSWRGRSTYYWPRPRRYVQPPEMIGPMRPEQFSDEVEPATPEEGEPATQRQDPAAAQEGEDEGASAGQGPKPEAHSQEQGHPQTGCECEDGPDGQEMDPPNPEEVKTPEEGEKQSQC
Which “TSA Expression Rate (ER)” value (BREAST) does the source give for B10 here?
Its value is 31%.

And the “Expression Rate (ER) %” value [3]?
The value was 9%.

B11: PIWIL3 (protein, UniProt Q7Z3Z3 1-882, looked up)
Piwi-like protein 3: MPGRARTRARGRARRRESYQQEAPGGPRAPGSATTQEPPQLQSTPRPLQEEVPVVRPLQPRAARGGAGGGAQSQGVKEPGPEAGLHTAPLQERRIGGVFQDLVVNTRQDMKHVKDSKTGSEGTVVQLLANHFRVISRPQWVAYKYNVDYKPDIEDGNLRTILLDQHRRKFGERHIFDGNSLLLSRPLKERRVEWLSTTKDKNIVKITVEFSKELTPTSPDCLRYYNILFRRTFKLLDFEQVGRNYYTKKKAIQLYRHGTSLEIWLGYVTSVLQYENSITLCADVSHKLLRIETAYDFIKRTSAQAQTGNIREEVTNKLIGSIVLTKYNNKTYRVDDIDWKQNPEDTFNKSDGSKITYIDYYRQQHKEIVTVKKQPLLVSQGRWKKGLTGTQREPILLIPQLCHMTGLTDEICKDYSIVKELAKHTRLSPRRRHHTLKEFINTLQDNKKVRELLQLWDLKFDTNFLSVPGRVLKNANIVQGRRMVKANSQGDWSREIRELPLLNAMPLHSWLILYSRSSHREAMSLKGHLQSVTAPMGITMKPAEMIEVDGDANSYIDTLRKYTRPTLQMGMSCLLVFKVICILPNDDKRRYDSIKRYLCTKCPIPSQCVVKKTLEKVQARTIVTKIAQQMNCKMGGALWKVETDVQRTMFVGIDCFHDIVNRQKSIAGFVASTNAELTKWYSQCVIQKTGEELVKELEICLKAALDVWCKNESSMPHSVIVYRDGVGDGQLQALLDHEAKKMSTYLKTISPNNFTLAFIVVKKRINTRFFLKHGSNFQNPPPGTVIDVELTRNEWYDFFIVSQSVQDGTVTPTHYNVIYDTIGLSPDTVQRLTYCLCHMYYNLPGIIRVPAPCHYAHKLAYLVGQSIHQEPNRSLSTRLFYL
For B11, which “TSA Expression Rate (ER)” value (OVARIAN) is on record?
The value was 88%.

And the “Expression Rate (ER) %” value (TSA expression rate in CRC)?
Its value is 96%.

And the “Expression Rate (ER) %” value [1]?
The value was 7%.
